According to patent US6355256B1, “Compositions containing a p53 derived protein or peptide, an adjuvant, and interleukin-12 and uses thereof” (Ludwig Institute for Cancer Research, priority 1994, dated 2002):
Entries after “also recorded” stand apart in the source; their conditions may differ. No end group written: not given here.

B1: IL-12: the cytokine interleukin-12 (protein, UniProt P29459 23-219; P29460 23-328, looked up)
Interleukin-12 subunit alpha: RNLPVATPDPGMFPCLHHSQNLLRAVSNMLQKARQTLEFYPCTSEEIDHEDITKDKTSTVEACLPLELTKNESCLNSRETSFITNGSCLASRKTSFMMALCLSSIYEDLKMYQVEFKTMNAKLLMDPKRQIFLDQNMLAVIDELMQALNFNSETVPQKSSLEEPDFYKTKIKLCILLHAFRIRAVTIDRVMSYLNAS
Interleukin-12 subunit beta: IWELKKDVYVVELDWYPDAPGEMVVLTCDTPEEDGITWTLDQSSEVLGSGKTLTIQVKEFGDAGQYTCHKGGEVLSHSLLLLHKKEDGIWSTDILKDQKEPKNKTFLRCEAKNYSGRFTCWWLTTISTDLTFSVKSSRGSSDPQGVTCGAATLSAERVRGDNKEYEYSVECQEDSACPAAEESLPIEVMVDAVHKLKYENYTSSFFIRDIIKPDPPKNLQLKPLKNSRQVEVSWEYPDTWSTPHSYFSLTFCVQVQGKSKREKKDRVFTDKTSATVICRKNASISVRAQDRYYSSSWSEWASVPCS

Key:
[1] = test system: Meth A sarcoma; test: Suppression of growth of established Meth A tumors by peptide in adjuvant plus low dose IL-12; format: in vivo, BALB/C mice; details: for suppression of tumor growth: peptide in QS-21 or QS-21 alone at days 7 and 14 after Meth A challenge, IL-12 1 ng, 4 times a week for two weeks from day 7
Procedure: As with the prior experiments, female BALB/C mice were injected with 5×10^4 Meth A cells at day 0. The mice received two injections of the mutant peptide in QS-21, the wild type peptide in QS-21, or QS-21 alone in the same manner described in Example 3, at weekly intervals. At day 7, the mice began receiving injections of 1 ng of IL-12 (4 times a week, for two weeks).
FIG. 4A resulted from QS-21 plus the mutant peptide followed by injections of IL-12. FIG. 4B resulted from QS-21 plus peptide, followed by injections with IL-12. FIG. 4C resulted from QS-21 alone followed by injections of IL-12.

[2] = test system: P1-HTR cells pulsed with peptide; test: Generation of peptide-specific CTLs after immunization with peptide, adjuvant and IL-12 (51Cr release assay); format: cell-based, BALB/C mice
[3] = test system: Meth A sarcoma; test: Anti-tumor effect of IL-12 on established Meth A sarcoma in mice (tumor diameter); format: in vivo, BALB/C mice
Procedure: The in vivo model employed used the transplantable, methylcholanthrene-induced sarcoma “Meth A.” This is a sarcoma of BALB/C (murine) origin, passaged as an ascitic tumor. See Old, et al, Ann. N.Y. Acad. Sci 101:80-106 (1962), incorporated by reference in its entirety.
BALB/C female mice were injected intradermally with 5×10^4 Meth A cells on day 0. Seven days later, a treatment regime began, wherein the animals received doses of IL-12, 4 times a week. Control animals received no IL-12. The remaining animals received 1 ng, 10 ng, 100 ng, or 500 ng of IL-12 in each dose, administered by intraperitoneal injection.
The effect of the IL-12 on the induced tumors was observed by measuring the diameter of the tumors at the end of the treatment period. FIGS. 1A, 1B, 1C, 1D and 1E show this. The panels show results with doses of 0 ng, 1 ng, 10 ng, 100 ng, and 500 ng, respectively.
The effect of the IL-12 was abolished by administering monoclonal antibodies against CD8 molecules, but was not affected via administration of anti-CD4 mAbs.

[4] = test system: Meth A sarcoma; test: Timing of IL-12 administration relative to Meth A challenge; format: in vivo, BALB/C mice; details: 100 ng IL-12 at day -14, day 0 or day 7 relative to Meth A challenge
Procedure: The importance of timing in the administration of IL-12 was then studied. In these experiments, female BALB/C mice were again injected with 5×10^4 Meth A cells, as in Example 1 (day 0). Injections of 100 ng IL-12 were administered at day “−14” (i.e., 14 days before challenge with the tumor cells), day 0, or day 7 (i.e., 7 days after challenge) as in Example 1.

Molecule | suppression of tumor growth [1] | CTLs elicited following immunization ([2]; 100 μg peptide twice at weekly intervals, regardless of the adjuvant (QS-21 or IFA) or treatment with IL-12) | stimulation of an immune response when used alone ([1]; each component alone, summary of the examples) | optimal dose of IL-12 for the generation of CTLs ([2]; IL-12 0.1, 1, 10 or 100 ng, four times over two weeks, with peptide in QS-21 or IFA) | effect of higher doses of IL-12 on generation of CTLs ([2]; IL-12 doses above 1 ng, with peptide in QS-21 or IFA) | anti-tumor effect (diameter of the tumors at the end of the treatment period) ([3]; IL-12 1, 10, 100 or 500 ng i.p., 4 times a week from day 7 after 5×10^4 Meth A cells intradermally) | effect of the IL-12 on tumors when anti-CD4 mAbs are administered ([3]; with anti-CD4 mAbs) | effect of the IL-12 on tumors when monoclonal antibodies against CD8 are administered ([3]; with anti-CD8 mAbs) | effectiveness by timing of administration [4]
KYMCNSSCM (cysteine pairing not given here) [wild type peptide, wild type counterpart of peptide 234 CM] | did not lead to suppression of tumor growth | No CTLs were elicited | – | – | – | – | – | – | –
B1 | strong suppression of tumor growth; also recorded: growth suppressive effect | – | none | 1 ng | suppressive effect | dose dependent anti-tumor effect | not affected | abolished | most effective after the tumor had become established; also recorded: particularly effective after tumors have already formed
